Results taken from patent CN114891104A (YOURUI SAISI WUHAN BIOTECHNOLOGY CO LTD, dated 2022).

Target: T1, 重组人proAMH蛋白 (recombinant human proAMH protein) (human, UniProt P03971 25-560)
T1 construct: Expressed in Expi293 cells and purified on Ni-IMAC; nothing is said about the recombinant protein itself; also called His-tag重组人proAMH蛋白; 人proAMH标准品蛋白; not shown: His-tag; neither its length nor its terminus is stated
T1 sequence (looked up): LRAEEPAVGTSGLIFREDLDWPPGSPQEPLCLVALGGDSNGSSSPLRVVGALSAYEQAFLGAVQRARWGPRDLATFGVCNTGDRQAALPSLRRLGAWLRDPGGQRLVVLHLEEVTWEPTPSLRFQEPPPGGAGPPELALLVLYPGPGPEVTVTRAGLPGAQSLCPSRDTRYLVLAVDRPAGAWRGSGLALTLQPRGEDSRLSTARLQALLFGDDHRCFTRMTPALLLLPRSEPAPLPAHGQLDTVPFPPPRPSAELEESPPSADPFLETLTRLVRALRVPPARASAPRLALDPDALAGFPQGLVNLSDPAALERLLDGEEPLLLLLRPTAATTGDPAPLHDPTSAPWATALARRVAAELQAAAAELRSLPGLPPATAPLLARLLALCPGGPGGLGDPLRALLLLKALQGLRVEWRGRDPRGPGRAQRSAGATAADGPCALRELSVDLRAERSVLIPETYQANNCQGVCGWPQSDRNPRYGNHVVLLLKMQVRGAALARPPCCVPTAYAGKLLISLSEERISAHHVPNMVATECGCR
Assay: SPR, Biacore 3000; antibody immobilised on CM5 chip, proAMH at 100-3 nM as analyte

B1: 单克隆抗体A (抗人proAMH蛋白兔单克隆抗体A) (antibody, V domains shown)
VH: QSVKESEGGLFKPTDTLTLTCTVSAFSISTYGVSWVRQAPGNGLEYIGWIAATGKVFYASWAKSRSTITRNTYENTVTLKMTSLTVADTATYFCAHVIWATQTFDFWGPGTLVTVSS
VL: DVVMTQTPASVSDPVGGTVTIKCQASQTITNFLSWFQQKPGQPPKLLIYNTMTLASGVPSRFKGSGSGTEYTLTISGVECADAATYYCQEGDNWDEVDAVFGGGTEVVVKG
notes: Recombinant rabbit monoclonal antibody made in 293F cells; kappa light chain, heavy constant region called IgG1 type; Copies '2' follows from the IgG format; also called monoclonal antibody A
Kd: 6.02 nM | koff: 0.000117 s⁻¹ | kon: 19500 M⁻¹ s⁻¹
